Measurements published in patent US20100260668A1 (published 2010).

B1: DVD444 (bispecific antibody, human IgG1, kappa)
heavy: not shown
light: DIQMTQSPSSLSASVGDRVTITCRASQDVSTAVAWYQQKPGKAPKLLIYSASFLYSGVPSRFSGSGSGTDFTLTISSLQPEDFATYYCQQSYTTPPTFGQGTKVEIKRTVAAPDIVMTQSPDSLAVSLGERATISCRASESVDNYGISFMKWFQQKPGQPPKLLIYAASNQGSGVPDRFSGSGSGTDFTLTISSLQAEDVAVYYCQQSKEVPWTFGGGTKVEIKRTVAAPSVFIFPPSDEQLKSGTASVVCLLNNFYPREAKVQWKVDNALQSGNSQESVTEQDSKDSTYSLSSTLTLSKADYEKHKVYACEVTHQGLSSPVTKSFNRGEC
notes: DVD-Ig; N-term; VD AB070 (VEGF), C-term; VD AB069 (DLL4); HC linker short, LC linker short; also called DVD444H; DVD444L
B2: DVD450 (bispecific antibody, human IgG1, kappa)
heavy: not shown
light: DIQMTQSPSSLSASVGDRVTITCRASQDVSTAVAWYQQKPGKAPKLLIYSASFLYSGVPSRFSGSGSGTDFTLTISSLQPEDFATYYCQQSYTTPPTFGQGTKVEIKRTVAAPSVFIFPPDIVMTQSPDSLAVSLGERATISCRASESVDNYGISFMKWFQQKPGQPPKLLIYAASNQGSGVPDRFSGSGSGTDFTLTISSLQAEDVAVYYCQQSKEVPWTFGGGTKVEIKRTVAAPSVFIFPPSDEQLKSGTASVVCLLNNFYPREAKVQWKVDNALQSGNSQESVTEQDSKDSTYSLSSTLTLSKADYEKHKVYACEVTHQGLSSPVTKSFNRGEC
notes: DVD-Ig; N-term; VD AB070 (VEGF), C-term; VD AB069 (DLL4); HC linker long, LC linker long; also called DVD450H; DVD450L
B3: DVD489 (bispecific antibody, human IgG1, kappa, L234A L235A)
heavy: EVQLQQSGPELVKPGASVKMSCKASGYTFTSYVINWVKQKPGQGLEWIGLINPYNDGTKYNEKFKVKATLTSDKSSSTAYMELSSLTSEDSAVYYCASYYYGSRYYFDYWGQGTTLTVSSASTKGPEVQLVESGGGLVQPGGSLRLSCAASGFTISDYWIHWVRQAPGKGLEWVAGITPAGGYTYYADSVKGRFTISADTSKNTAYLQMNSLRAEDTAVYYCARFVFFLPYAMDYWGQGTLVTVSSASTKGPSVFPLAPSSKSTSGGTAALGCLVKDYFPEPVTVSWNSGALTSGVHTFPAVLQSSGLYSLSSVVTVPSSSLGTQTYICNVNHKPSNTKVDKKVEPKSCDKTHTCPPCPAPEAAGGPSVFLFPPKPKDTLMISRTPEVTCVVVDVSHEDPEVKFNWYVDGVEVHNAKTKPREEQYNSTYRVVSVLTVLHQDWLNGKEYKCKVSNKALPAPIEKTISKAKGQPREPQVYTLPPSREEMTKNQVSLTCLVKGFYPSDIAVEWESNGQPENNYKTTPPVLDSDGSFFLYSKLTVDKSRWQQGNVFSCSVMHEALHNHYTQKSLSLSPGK
light: DIQMTQSSSYLSVSLGGRVTITCKASDHINNWLAWYQQKPGNAPRLLISGATSLETGVPSRFSGSGSGKDYTLSITSLQTEDVATYYCQQYWSIPLTFGAGTKLELKRTVAAPDIQMTQSPSSLSASVGDRVTITCRASQDVSTAVAWYQQKPGKAPKLLIYSASFLYSGVPSRFSGSGSGTDFTLTISSLQPEDFATYYCQQSYTTPPTFGQGTKVEIKRTVAAPSVFIFPPSDEQLKSGTASVVCLLNNFYPREAKVQWKVDNALQSGNSQESVTEQDSKDSTYSLSSTLTLSKADYEKHKVYACEVTHQGLSSPVTKSFNRGEC
notes: DVD-Ig; N-term; VD AB072 (DLL4), C-term; VD AB070 (VEGF); HC linker short, LC linker short; also called DVD489H; DVD489L
B4: DVD501 (bispecific antibody, human IgG1, kappa)
heavy: not shown
light: DIQMTQSSSYLSVSLGGRVTITCKASDHINNWLAWYQQKPGNAPRLLISGATSLETGVPSRFSGSGSGKDYTLSITSLQTEDVATYYCQQYWSIPLTFGAGTKLELKRTVAAPDIQMTQSPSSLSASVGDRVTITCRASQDVSTAVAWYQQKPGKAPKLLIYSASFLYSGVPSRFSGSGSGTDFTLTISSLQPEDFATYYCQQSYTTPPTFGQGTKVEIKRTVAAPSVFIFPPSDEQLKSGTASVVCLLNNFYPREAKVQWKVDNALQSGNSQESVTEQDSKDSTYSLSSTLTLSKADYEKHKVYACEVTHQGLSSPVTKSFNRGEC
notes: DVD-Ig; N-term; VD AB072 (DLL4), C-term; VD AB070 (VEGF); HC linker long, LC linker short; also called DVD501H; DVD501L
B5: DVD519 (bispecific antibody, human IgG1, kappa, lambda)
heavy: not shown
light: QAVVTQESALTTSPGETVTLTCRSSTGAVTTSNYANWVQEKPDHLFTGLIGGTNNRAPGVPARFSGSLIGDKAALTITGAQTEDEAIYFCALWYSNHWVFGGGTKLTVLGQPKAAPSVTLFPPDIQMTQSPSSLSASVGDRVTITCRASQDVSTAVAWYQQKPGKAPKLLIYSASFLYSGVPSRFSGSGSGTDFTLTISSLQPEDFATYYCQQSYTTPPTFGQGTKVEIKRTVAAPSVFIFPPSDEQLKSGTASVVCLLNNFYPREAKVQWKVDNALQSGNSQESVTEQDSKDSTYSLSSTLTLSKADYEKHKVYACEVTHQGLSSPVTKSFNRGEC
notes: DVD-Ig; N-term; VD AB073 (DLL4), C-term; VD AB070 (VEGF); HC linker long, LC linker long; also called DVD519H; DVD519L
B6: DVD531 (bispecific antibody, human IgG1, kappa, lambda)
heavy: not shown
light: QAVVTQESALTTSPGETVTLTCRSSTGAVTTSNYANWVQEKPDHLFTGLIGGTNNRAPGVPARFSGSLIGDKAALTITGAQTEDEAIYFCALWYSNHWVFGGGTKLTVLGQPKAAPSVTLFPPDIQMTQSPSSLSASVGDRVTITCRASQDVSTAVAWYQQKPGKAPKLLIYSASFLYSGVPSRFSGSGSGTDFTLTISSLQPEDFATYYCQQSYTTPPTFGQGTKVEIKRTVAAPSVFIFPPSDEQLKSGTASVVCLLNNFYPREAKVQWKVDNALQSGNSQESVTEQDSKDSTYSLSSTLTLSKADYEKHKVYACEVTHQGLSSPVTKSFNRGEC
notes: DVD-Ig; N-term; VD AB073 (DLL4), C-term; VD AB070 (VEGF); HC linker short, LC linker long; also called DVD531H; DVD531L
B7: DVD466 (bispecific antibody, human IgG1, kappa)
heavy: not shown
light: DIQMTQSPSSLSASVGDRVTITCRASQDVSTAVAWYQQKPGKAPKLLIYSASFLYSGVPSRFSGSGSGTDFTLTISSLQPEDFATYYCQQSYTTPPTFGQGTKVEIKRTVAAPDIQMTQSPSSLSASVGDRVTITCRASQDVSTAVAWYQQKPGKAPKLLIYSASFLYSGVPSRFSGSGSGTDFTLTISSLQPEDFATTYYCQQSYTGTVTFGQGTKVEIKRTVAAPSVFIFPPSDEQLKSGTASVVCLLNNFYPREAKVQWKVDNALQSGNSQESVTEQDSKDSTYSLSSTLTLSKADYEKHKVYACEVTHQGLSSPVTKSFNRGEC
notes: DVD-Ig; N-term; VD AB070 (VEGF), C-term; VD AB015 (DLL4); HC linker short, LC linker short; also called DVD466H; DVD466L
B8: DVD478 (bispecific antibody, human IgG1, kappa)
heavy: not shown
light: DIQMTQSPSSLSASVGDRVTITCRASQDVSTAVAWYQQKPGKAPKLLIYSASFLYSGVPSRFSGSGSGTDFTLTISSLQPEDFATYYCQQSYTTPPTFGQGTKVEIKRTVAAPDIQMTQSPSSLSASVGDRVTITCRASQDVSTAVAWYQQKPGKAPKLLIYSASFLYSGVPSRFSGSGSGTDFTLTISSLQPEDFATTYYCQQSYTGTVTFGQGTKVEIKRTVAAPSVFIFPPSDEQLKSGTASVVCLLNNFYPREAKVQWKVDNALQSGNSQESVTEQDSKDSTYSLSSTLTLSKADYEKHKVYACEVTHQGLSSPVTKSFNRGEC
notes: DVD-Ig; N-term; VD AB070 (VEGF), C-term; VD AB015 (DLL4); HC linker long, LC linker short; also called DVD478H; DVD478L
B9: DVD495 (bispecific antibody, human IgG1, kappa)
heavy: not shown
light: DIQMTQSSSYLSVSLGGRVTITCKASDHINNWLAWYQQKPGNAPRLLISGATSLETGVPSRFSGSGSGKDYTLSITSLQTEDVATYYCQQYWSIPLTFGAGTKLELKRTVAAPSVFIFPPDIQMTQSPSSLSASVGDRVTITCRASQDVSTAVAWYQQKPGKAPKLLIYSASFLYSGVPSRFSGSGSGTDFTLTISSLQPEDFATYYCQQSYTTPPTFGQGTKVEIKRTVAAPSVFIFPPSDEQLKSGTASVVCLLNNFYPREAKVQWKVDNALQSGNSQESVTEQDSKDSTYSLSSTLTLSKADYEKHKVYACEVTHQGLSSPVTKSFNRGEC
notes: DVD-Ig; N-term; VD AB072 (DLL4), C-term; VD AB070 (VEGF); HC linker long, LC linker long; also called DVD495H; DVD495L
B10: DVD507 (bispecific antibody, human IgG1, kappa, L234A L235A)
heavy: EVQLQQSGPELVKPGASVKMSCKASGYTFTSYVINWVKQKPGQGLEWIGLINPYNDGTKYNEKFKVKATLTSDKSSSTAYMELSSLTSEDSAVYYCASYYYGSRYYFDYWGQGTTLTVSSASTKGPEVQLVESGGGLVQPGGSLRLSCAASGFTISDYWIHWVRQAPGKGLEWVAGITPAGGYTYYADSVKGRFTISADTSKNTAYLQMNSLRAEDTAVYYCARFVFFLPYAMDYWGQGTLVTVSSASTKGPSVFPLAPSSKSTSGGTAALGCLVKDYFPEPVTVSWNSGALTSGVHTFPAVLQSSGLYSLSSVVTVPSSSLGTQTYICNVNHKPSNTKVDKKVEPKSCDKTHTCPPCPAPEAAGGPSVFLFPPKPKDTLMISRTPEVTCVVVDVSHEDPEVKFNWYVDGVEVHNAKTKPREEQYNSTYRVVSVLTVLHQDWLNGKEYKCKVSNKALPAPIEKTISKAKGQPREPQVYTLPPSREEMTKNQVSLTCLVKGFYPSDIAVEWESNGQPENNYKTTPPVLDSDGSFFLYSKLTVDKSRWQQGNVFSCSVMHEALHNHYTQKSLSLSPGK
light: DIQMTQSSSYLSVSLGGRVTITCKASDHINNWLAWYQQKPGNAPRLLISGATSLETGVPSRFSGSGSGKDYTLSITSLQTEDVATYYCQQYWSIPLTFGAGTKLELKRTVAAPSVFIFPPDIQMTQSPSSLSASVGDRVTITCRASQDVSTAVAWYQQKPGKAPKLLIYSASFLYSGVPSRFSGSGSGTDFTLTISSLQPEDFATYYCQQSYTTPPTFGQGTKVEIKRTVAAPSVFIFPPSDEQLKSGTASVVCLLNNFYPREAKVQWKVDNALQSGNSQESVTEQDSKDSTYSLSSTLTLSKADYEKHKVYACEVTHQGLSSPVTKSFNRGEC
notes: DVD-Ig; N-term; VD AB072 (DLL4), C-term; VD AB070 (VEGF); HC linker short, LC linker long; also called DVD507H; DVD507L
B11: DVD513 (bispecific antibody, human IgG1, kappa)
heavy: not shown
light: QAVVTQESALTTSPGETVTLTCRSSTGAVTTSNYANWVQEKPDHLFTGLIGGTNNRAPGVPARFSGSLIGDKAALTITGAQTEDEAIYFCALWYSNHWVFGGGTKLTVLGQPKAAPDIQMTQSPSSLSASVGDRVTITCRASQDVSTAVAWYQQKPGKAPKLLIYSASFLYSGVPSRFSGSGSGTDFTLTISSLQPEDFATYYCQQSYTTPPTFGQGTKVEIKRTVAAPSVFIFPPSDEQLKSGTASVVCLLNNFYPREAKVQWKVDNALQSGNSQESVTEQDSKDSTYSLSSTLTLSKADYEKHKVYACEVTHQGLSSPVTKSFNRGEC
notes: DVD-Ig; N-term; VD AB073 (DLL4), C-term; VD AB070 (VEGF); HC linker short, LC linker short; also called DVD513H; DVD513L
B12: DVD525 (bispecific antibody, human IgG1, kappa)
heavy: not shown
light: QAVVTQESALTTSPGETVTLTCRSSTGAVTTSNYANWVQEKPDHLFTGLIGGTNNRAPGVPARFSGSLIGDKAALTITGAQTEDEAIYFCALWYSNHWVFGGGTKLTVLGQPKAAPDIQMTQSPSSLSASVGDRVTITCRASQDVSTAVAWYQQKPGKAPKLLIYSASFLYSGVPSRFSGSGSGTDFTLTISSLQPEDFATYYCQQSYTTPPTFGQGTKVEIKRTVAAPSVFIFPPSDEQLKSGTASVVCLLNNFYPREAKVQWKVDNALQSGNSQESVTEQDSKDSTYSLSSTLTLSKADYEKHKVYACEVTHQGLSSPVTKSFNRGEC
notes: DVD-Ig; N-term; VD AB073 (DLL4), C-term; VD AB070 (VEGF); HC linker long, LC linker short; also called DVD525H; DVD525L
B13: DVD472 (bispecific antibody, human IgG1, kappa)
heavy: not shown
light: DIQMTQSPSSLSASVGDRVTITCRASQDVSTAVAWYQQKPGKAPKLLIYSASFLYSGVPSRFSGSGSGTDFTLTISSLQPEDFATYYCQQSYTTPPTFGQGTKVEIKRTVAAPSVFIFPPDIQMTQSPSSLSASVGDRVTITCRASQDVSTAVAWYQQKPGKAPKLLIYSASFLYSGVPSRFSGSGSGTDFTLTISSLQPEDFATTYYCQQSYTGTVTFGQGTKVEIKRTVAAPSVFIFPPSDEQLKSGTASVVCLLNNFYPREAKVQWKVDNALQSGNSQESVTEQDSKDSTYSLSSTLTLSKADYEKHKVYACEVTHQGLSSPVTKSFNRGEC
notes: DVD-Ig; N-term; VD AB070 (VEGF), C-term; VD AB015 (DLL4); HC linker long, LC linker long; also called DVD472H; DVD472L
B14: DVD484 (bispecific antibody, human IgG1, kappa)
heavy: not shown
light: DIQMTQSPSSLSASVGDRVTITCRASQDVSTAVAWYQQKPGKAPKLLIYSASFLYSGVPSRFSGSGSGTDFTLTISSLQPEDFATYYCQQSYTTPPTFGQGTKVEIKRTVAAPSVFIFPPDIQMTQSPSSLSASVGDRVTITCRASQDVSTAVAWYQQKPGKAPKLLIYSASFLYSGVPSRFSGSGSGTDFTLTISSLQPEDFATTYYCQQSYTGTVTFGQGTKVEIKRTVAAPSVFIFPPSDEQLKSGTASVVCLLNNFYPREAKVQWKVDNALQSGNSQESVTEQDSKDSTYSLSSTLTLSKADYEKHKVYACEVTHQGLSSPVTKSFNRGEC
notes: DVD-Ig; N-term; VD AB070 (VEGF), C-term; VD AB015 (DLL4); HC linker short, LC linker long; also called DVD484H; DVD484L

Target: T1, VEGF (UniProt P15692-4 27-191)
T1 construct: Bought reagent; also called vascular endothelial growth factor
Assay: SPR (Biacore), DVD-Ig captured, VEGF in solution

T1 sequence (P15692 other isoform, or with tags, fused parts or gaps limits assumed): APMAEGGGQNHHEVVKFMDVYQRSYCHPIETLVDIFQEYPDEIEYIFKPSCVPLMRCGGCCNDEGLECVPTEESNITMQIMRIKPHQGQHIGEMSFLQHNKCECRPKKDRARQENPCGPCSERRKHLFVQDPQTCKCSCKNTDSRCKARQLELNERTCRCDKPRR

Binder	Kd [nM]	koff [s⁻¹]	kon [M⁻¹ s⁻¹]
B1	0.162	0.0038	2.35e+07
B2	0.255	0.00431	1.69e+07
B3	1.76	0.000365	207000
B4	0.821	0.000175	213000
B5	0.223	0.00522	2.35e+07
B6	0.584	0.000442	756000
B7	0.71	0.000393	553000
B8	0.354	0.000195	552000
B9	0.645	0.000204	316000
B10	0.847	0.000201	238000
B11	1.24	0.000497	400000
B12	0.447	0.000483	1.08e+06
B13	0.201	0.00024	1.2e+06
B14	0.255	0.0041	1.61e+07
